The text below walks through data of patent US20110117021A1.

This test concerns the target human VAP-1 expressed on the surface of transfected Ax rat endothelial cells (human) (UniProt Q16853). Kind of test: cell-based or functional assay.

human VAP-1 expressed on the surface of transfected Ax rat endothelial cells (human), sequence (Q16853 whole entry): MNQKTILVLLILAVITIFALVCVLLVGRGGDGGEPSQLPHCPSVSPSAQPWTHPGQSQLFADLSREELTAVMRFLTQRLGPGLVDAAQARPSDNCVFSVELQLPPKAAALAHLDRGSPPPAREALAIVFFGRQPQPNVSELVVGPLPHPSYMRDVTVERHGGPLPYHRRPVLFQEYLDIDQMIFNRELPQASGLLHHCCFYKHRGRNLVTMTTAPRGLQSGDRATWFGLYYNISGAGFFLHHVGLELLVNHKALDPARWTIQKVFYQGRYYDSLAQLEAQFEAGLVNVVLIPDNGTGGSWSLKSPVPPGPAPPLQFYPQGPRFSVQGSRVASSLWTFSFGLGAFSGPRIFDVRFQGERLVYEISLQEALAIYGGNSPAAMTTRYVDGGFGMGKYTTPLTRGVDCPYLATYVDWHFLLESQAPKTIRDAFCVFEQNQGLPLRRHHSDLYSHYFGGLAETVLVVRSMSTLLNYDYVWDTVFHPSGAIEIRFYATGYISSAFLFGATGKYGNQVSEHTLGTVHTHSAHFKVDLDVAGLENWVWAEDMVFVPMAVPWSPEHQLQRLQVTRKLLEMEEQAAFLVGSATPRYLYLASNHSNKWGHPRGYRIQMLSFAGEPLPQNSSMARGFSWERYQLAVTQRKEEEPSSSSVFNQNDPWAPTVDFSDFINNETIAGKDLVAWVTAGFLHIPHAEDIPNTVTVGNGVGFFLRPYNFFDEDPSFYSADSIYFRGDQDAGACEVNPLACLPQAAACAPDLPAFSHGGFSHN

For the substance “BTT-1002, chimeric anti-VAP-1 monoclonal antibody”, the migration of human PBMC through a monolayer of Ax endothelial cells expressing human VAP-1 (in vitro transmigration assay) turned out to be 1.
